Series [1] has as its target 5-FAM labeled Rim1 (FAM-Rim1) (S. cerevisiae) (UniProt P32445). Nature of the series: fluorescence polarisation. On the technique in general: Polarisation of emitted light reports the rotation of a fluorescent probe.
For series [2], the target named is 5-FAM labeled Rim1ΔC18 (FAM-Rim1ΔC18) (S. cerevisiae) (UniProt P32445). Nature of the series: fluorescence polarisation.
The target of series [3] is Human mitochondrial SSB (HsmtSSB) (human) (UniProt Q04837). The series is described as follows: pull-down.
Chain of Human mitochondrial SSB (HsmtSSB) (human) (Q04837 17-148): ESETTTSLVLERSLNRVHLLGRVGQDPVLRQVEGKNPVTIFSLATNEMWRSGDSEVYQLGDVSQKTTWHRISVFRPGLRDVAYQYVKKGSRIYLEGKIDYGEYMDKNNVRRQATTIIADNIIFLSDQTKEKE
Another series has as its target Rim1ΔC18 (S. cerevisiae) (UniProt P32445). Nature of the series: pull-down.
The next series has as its target T1, Rim1 (Saccharomyces cerevisiae, UniProt P32445 18-135).
T1 sequence: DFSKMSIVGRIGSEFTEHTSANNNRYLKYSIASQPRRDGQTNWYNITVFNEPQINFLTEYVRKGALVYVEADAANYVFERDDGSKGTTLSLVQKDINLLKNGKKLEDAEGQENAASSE
The series is described as follows: fluorescence anisotropy.

A further series addresses T2, Rim1ΔC18 (Saccharomyces cerevisiae, UniProt P32445 18-117, del118-135).
T2 sequence: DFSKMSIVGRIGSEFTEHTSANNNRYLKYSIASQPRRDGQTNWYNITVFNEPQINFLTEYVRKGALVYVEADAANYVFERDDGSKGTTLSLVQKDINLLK
The series is described as follows: fluorescence anisotropy.

The series “SEC-MALS” deals with the molecule itself. Nature of the series: SEC-MALS. (In general: SEC sorts molecules by how far they enter the pores of the column.)

The text below walks through data of publication PMC3553982 (Nucleic Acids Research, 2012).

Take “Pif1 (recombinant, nuclear form) (from UniProt P07271 46-859) (enzyme)”: the figures for the Kd in series [1] and in series [2] were 690 nM and 2500 nM, respectively. Besides, the relative amount of Pif1 co-precipitated (Pif1 bound to Rim1 taken as 1) in series [3] turned out to be 0.63; with Rim1ΔC18 (S. cerevisiae), 0.45.

B1: 3'F-T70 (ssDNA)
DNA: TTTTTTTTTTTTTTTTTTTTTTTTTTTTTTTTTTTTTTTTTTTTTTTTTTTTTTTTTTTTTTTTTTTTTT
As for B1, the Kd in the series with Rim1 and in the series with Rim1ΔC18 was under 1 nM in each case.

B2: Rim1ΔC18 (domain or fragment, S. cerevisiae, UniProt P32445 18-117, looked up)
chain: DFSKMSIVGRIGSEFTEHTSANNNRYLKYSIASQPRRDGQTNWYNITVFNEPQINFLTEYVRKGALVYVEADAANYVFERDDGSKGTTLSLVQKDINLLK
Regarding B2, in the series “SEC-MALS”, the stoichiometry N (usually the number of molecules, sites or subunits per partner or assembly) was determined as 4.
